Source: patent US20240158497A1 (published 2024)

Experiments:
[1] = target: T1, Macaca Fascicularis LEPR extracellular domain expressed with a C-terminal myc-myc-hexahistidine tag (Macaca fascicularis, UniProt Q9MYL0 22-837 (rhesus entry)); experiment: SPR Biacore 4000, bsAb captured by anti-human Fc, 25 C
T1 construct: Monomeric reagent; the whole entry is the construct with its tag; also called mfLEPR-MMH
Procedure: (§1) Equilibrium dissociation constants (KD values) for LEPR and GP130 binding to purified anti-LEPR/GP130 bispecific antibodies were determined using a real-time surface plasmon resonance biosensor using a Biacore 4000 instrument. All binding studies were performed in 10 mM HEPES, 150 mM NaCl, 3 mM EDTA, and 0.05% v/v Surfactant Tween-20, pH 7.4 (HBS-ET) running buffer at 25° C. and 37° C. The Biacore sensor surface was first derivatized by amine coupling with a monoclonal mouse anti-human Fc antibody (GE, #BR-1008-39) to capture anti-LEPR/GP130 bispecific antibodies. […] Different concentrations of LEPR or GP130 reagents were first prepared in HBS-ET running buffer (100 nM-3.7 nM; 3-fold serial dilution) and were injected over anti-human Fc captured anti-LEPR/GP130 bispecific antibody surface for 4 minutes at a flow rate of 30 μL/minute, while the dissociation of bispecific antibody bound LEPR or GP130 reagent was monitored for 10 minutes in HBS-ET running buffer. Kinetic association (kₐ) and dissociation (kd) rate constants were determined by fitting the real-time binding sensorgrams to a 1:1 binding model with mass transport limitation using Scrubber 2.0c curve-fitting software. Binding dissociation equilibrium constants (KD) and dissociative half-lives (t ½) were calculated from the kinetic rate constants as: […]

[2] = target: T2, human LEPR extracellular domain expressed with a C-terminal myc-myc-hexahistidine tag (human, UniProt P48357 22-839); experiment: as above
T2 construct: Monomeric reagent; the whole entry is the construct with its tag; also called hLEPR-MMH; hLEPR.mmh
Procedure: as §1

[3] = target: T1, Macaca Fascicularis LEPR extracellular …; experiment: SPR Biacore 4000, bsAb captured by anti-human Fc, 37 C
Procedure: as §1

[4] = target: T2, human LEPR extracellular domain …; experiment: as above
Procedure: as §1

T2 sequence (P48357 other isoform, or with tags, fused parts or gaps): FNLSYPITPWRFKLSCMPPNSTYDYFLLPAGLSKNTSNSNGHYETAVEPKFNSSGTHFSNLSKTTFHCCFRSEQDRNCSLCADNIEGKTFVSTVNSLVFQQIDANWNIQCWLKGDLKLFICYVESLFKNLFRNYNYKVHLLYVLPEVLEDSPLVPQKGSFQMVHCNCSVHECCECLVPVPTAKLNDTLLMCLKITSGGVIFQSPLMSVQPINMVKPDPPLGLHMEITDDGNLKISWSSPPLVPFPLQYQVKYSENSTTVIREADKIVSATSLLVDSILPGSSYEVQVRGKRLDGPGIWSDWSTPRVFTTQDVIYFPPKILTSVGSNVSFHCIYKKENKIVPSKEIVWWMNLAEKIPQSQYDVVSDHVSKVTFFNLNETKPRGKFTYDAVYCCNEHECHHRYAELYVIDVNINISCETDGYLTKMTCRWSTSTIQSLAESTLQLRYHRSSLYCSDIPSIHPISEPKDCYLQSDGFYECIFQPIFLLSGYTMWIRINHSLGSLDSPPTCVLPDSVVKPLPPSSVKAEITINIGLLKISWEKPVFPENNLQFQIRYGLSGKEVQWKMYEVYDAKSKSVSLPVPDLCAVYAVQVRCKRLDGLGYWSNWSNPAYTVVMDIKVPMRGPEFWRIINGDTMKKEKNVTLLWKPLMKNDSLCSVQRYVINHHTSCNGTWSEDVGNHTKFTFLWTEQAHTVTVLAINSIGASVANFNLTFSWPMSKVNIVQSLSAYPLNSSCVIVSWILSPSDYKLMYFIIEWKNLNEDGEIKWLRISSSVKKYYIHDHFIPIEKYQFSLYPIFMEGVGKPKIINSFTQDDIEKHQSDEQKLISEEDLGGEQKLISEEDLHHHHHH
T1 sequence (Q9MYL0 other isoform, or with tags, fused parts or gaps): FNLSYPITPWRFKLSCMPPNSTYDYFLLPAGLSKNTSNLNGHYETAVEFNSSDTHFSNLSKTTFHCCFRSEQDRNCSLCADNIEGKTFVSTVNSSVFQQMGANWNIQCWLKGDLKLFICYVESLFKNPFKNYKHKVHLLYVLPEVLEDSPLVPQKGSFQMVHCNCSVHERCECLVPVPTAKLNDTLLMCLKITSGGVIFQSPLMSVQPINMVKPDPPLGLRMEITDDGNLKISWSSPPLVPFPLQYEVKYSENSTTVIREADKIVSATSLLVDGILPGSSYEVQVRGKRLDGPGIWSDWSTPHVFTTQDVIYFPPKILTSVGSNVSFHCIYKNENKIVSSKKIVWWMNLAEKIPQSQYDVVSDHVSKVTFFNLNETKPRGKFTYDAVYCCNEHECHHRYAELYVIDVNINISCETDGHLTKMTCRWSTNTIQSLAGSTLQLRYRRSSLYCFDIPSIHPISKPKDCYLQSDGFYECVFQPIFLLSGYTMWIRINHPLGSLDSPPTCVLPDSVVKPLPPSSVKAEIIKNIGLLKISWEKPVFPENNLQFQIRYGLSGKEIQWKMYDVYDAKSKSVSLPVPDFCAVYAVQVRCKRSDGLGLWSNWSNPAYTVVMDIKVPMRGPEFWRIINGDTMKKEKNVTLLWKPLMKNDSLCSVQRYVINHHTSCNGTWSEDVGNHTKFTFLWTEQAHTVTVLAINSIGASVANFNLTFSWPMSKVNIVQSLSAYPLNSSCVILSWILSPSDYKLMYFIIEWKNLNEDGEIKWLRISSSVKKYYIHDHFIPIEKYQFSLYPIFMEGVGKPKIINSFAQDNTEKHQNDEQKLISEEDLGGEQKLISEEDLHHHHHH

| Binder | 100 nM mfLEPR-MMH Bound (RU) [1] [RU] | Kd [1] [nM] | koff [1] [s⁻¹] | kon [1] [M⁻¹ s⁻¹] | t½ [1] [min] | 100 nM hLEPR-MMH Bound (RU) [2] [RU] | Kd [2] [nM] | koff [2] [s⁻¹] | kon [2] [M⁻¹ s⁻¹] | t½ [2] [min] | 100 nM mfLEPR-MMH Bound (RU) [3] [RU] | Kd [3] [nM] | koff [3] [s⁻¹] | kon [3] [M⁻¹ s⁻¹] | t½ [3] [min] | 100 nM hLEPR-MMH Bound (RU) [4] [RU] | Kd [4] [nM] | koff [4] [s⁻¹] | kon [4] [M⁻¹ s⁻¹] | t½ [4] [min] |
| --- | --- | --- | --- | --- | --- | --- | --- | --- | --- | --- | --- | --- | --- | --- | --- | --- | --- | --- | --- | --- |
| bsAb19143D (bispecific antibody, V domains shown, common light chain) VH 1: QVQLVESGGGVVQPGRSLRLSCTASGFTFSSYAMYWVRQAPGKGLEWVSVIYYDGSYKYYADSVKGRFTISRDNSKNTLYLQMDSLRAEDTAVYYCASYNWNYWYFDFWGRGTLVTVSS VH 2: QLQLQESGPGLVKPSETLSLICTVSGGSISSNNYYWGWIRQPPGKGLEWIGNLYGSGSTYYNPSLKSRVTISVDTSKNQFSLKLSFVTAADTAVYHCARWDTNGGAFDIWGQGTMVTVSS VL: not shown | 111 | 3.04 | 0.000136 | 44800 | 85 | 45 | 7.31 | 0.000182 | 24900 | 64 | 171 | 5.74 | 0.000551 | 95900 | 21 | 72 | 21.5 | 0.000763 | 35500 | 15 |
| bsAb19144D (bispecific antibody, V domains shown, common light chain) VH 1: QVQLVESGGGVVQPGRSLRLSCTASGFTFSSYAMYWVRQAPGKGLEWVSVIYYDGSYKYYADSVKGRFTISRDNSKNTLYLQMDSLRAEDTAVYYCASYNWNYWYFDFWGRGTLVTVSS VH 2: QVQLVQSGAEVKKPGASVKVSCKASGYTFTSLGISWVRQAPGQGLEWMGWISAYSGNRDYAQKFQGRVTMTTDTSTSTAYMELRSLRSDDTAVYYCARSLRFDYWGQGTLVTVSS VL: not shown | 114 | 3.02 | 0.000124 | 41100 | 93 | 48 | 6.48 | 0.000159 | 24600 | 73 | 178 | 5.22 | 0.000517 | 99100 | 22 | 78 | 16.2 | 0.000597 | 36800 | 19 |

Continued, values first:

| 100 nM mfLEPR-MMH Bound (RU) [1] [RU] | Kd [1] [nM] | koff [1] [s⁻¹] | kon [1] [M⁻¹ s⁻¹] | t½ [1] [min] | 100 nM hLEPR-MMH Bound (RU) [2] [RU] | Kd [2] [nM] | koff [2] [s⁻¹] | kon [2] [M⁻¹ s⁻¹] | t½ [2] [min] | 100 nM mfLEPR-MMH Bound (RU) [3] [RU] | Kd [3] [nM] | koff [3] [s⁻¹] | kon [3] [M⁻¹ s⁻¹] | t½ [3] [min] | 100 nM hLEPR-MMH Bound (RU) [4] [RU] | Kd [4] [nM] | koff [4] [s⁻¹] | kon [4] [M⁻¹ s⁻¹] | t½ [4] [min] | Binder |
| --- | --- | --- | --- | --- | --- | --- | --- | --- | --- | --- | --- | --- | --- | --- | --- | --- | --- | --- | --- | --- |
| 107 | 2.63 | 0.000113 | 42900 | 102 | 45 | 8.16 | 0.000179 | 22000 | 64 | 164 | 5.68 | 0.000568 | 100000 | 20 | 69 | 21.3 | 0.000825 | 38700 | 14 | bsAb19146D (bispecific antibody, V domains shown, common light chain) VH 1: QVQLVESGGGVVQPGRSLRLSCTASGFTFSSYAMYWVRQAPGKGLEWVSVIYYDGSYKYYADSVKGRFTISRDNSKNTLYLQMDSLRAEDTAVYYCASYNWNYWYFDFWGRGTLVTVSS VH 2: QVQLVQSGPEVKKPGSSVKVSCKASGGTIDRNEITWVRQAPGQGLEWMGVIIPILGEAHYERKFQGRLTITMDESTSTAYMELSNLRSEDTAVYYCARERAARGYLDYWGQGTLVTVSS VL: not shown |
| 102 | 2.75 | 0.000123 | 44900 | 94 | 41 | 6.62 | 0.000165 | 24900 | 70 | 162 | 5.48 | 0.000566 | 103000 | 20 | 66 | 20.8 | 0.000805 | 38600 | 14 | bsAb19145D (bispecific antibody, V domains shown, common light chain) VH 1: QVQLVESGGGVVQPGRSLRLSCTASGFTFSSYAMYWVRQAPGKGLEWVSVIYYDGSYKYYADSVKGRFTISRDNSKNTLYLQMDSLRAEDTAVYYCASYNWNYWYFDFWGRGTLVTVSS VH 2: EVQLVESGGGLVQPGRSLRLSCAASGFTLDDFAMHWVRQAPGKGLEWVSGISWNSGNIGYADSVKGRFTISRDNARNSLYLQMNSLRAEDTALYYCTSGYYLYYAMDVWGQGTTVTVSS VL: not shown |
